Laboratory results: patent publication US20250326828A1 (STAIDSON BEIJING BIOPHARMACEUTICALS, published 2025)
Residue numbers refer to the chain shown, from its start. Like-named read-outs stand apart in the source and are kept apart here.

Key:
human GDF15-his [1] = biological target: T1, human GDF15-his (human); test: ELISA; antibody coated, human GDF15-his titrated, anti-his-HRP detection
T1 construct: Recombinant His-tagged fusion protein expressed in 293F cells
T1 chain: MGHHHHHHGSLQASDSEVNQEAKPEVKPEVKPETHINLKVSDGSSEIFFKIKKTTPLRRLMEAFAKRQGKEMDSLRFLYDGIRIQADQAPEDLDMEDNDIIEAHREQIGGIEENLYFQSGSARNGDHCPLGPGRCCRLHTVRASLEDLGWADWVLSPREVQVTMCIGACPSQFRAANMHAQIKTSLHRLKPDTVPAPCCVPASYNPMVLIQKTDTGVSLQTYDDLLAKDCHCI
Procedure: (§1) ELISA binding assay: The purified monoclonal antibody was subjected to a binding assay with human GDF15-his protein. The binding assay was designed to characterize the binding activity of the anti-GDF15 antibody. Briefly, a 96-well plate was coated with anti-GDF15 antibody (200 ng/well) and incubated for 1 hour at 37° C. The plates were washed with PBST and then blocked for 1 hour at room temperature using 1% BSA. Then 100 µl/well of gradient-diluted human GDF15-his solution (dose range 0-50 μg/ml) was added into plates. After incubation, 100 μl of anti-his tag secondary antibody (anti-his-HRP (1:2000), Bersee, cat #BHR790) was added to each well. Finally, the TMB solution (100 μl/well) was added. 2M H₂SO₄ was used to stop the reaction. The OD450 was measured, and the binding curves were generated by PRISM software to analyze the affinity of candidate antibodies to human GDF15 antigen, and EC₅₀ value were calculated.

human GDF15-hFc [2] = biological target: T2, human GDF15-hFc (human); test: competition ELISA; GFRAL-his coated, antibody titrated against human GDF15-hFc, anti-human IgG-HRP detection
T2 construct: Recombinant hFc-tagged fusion protein expressed in 293F cells
T2 chain: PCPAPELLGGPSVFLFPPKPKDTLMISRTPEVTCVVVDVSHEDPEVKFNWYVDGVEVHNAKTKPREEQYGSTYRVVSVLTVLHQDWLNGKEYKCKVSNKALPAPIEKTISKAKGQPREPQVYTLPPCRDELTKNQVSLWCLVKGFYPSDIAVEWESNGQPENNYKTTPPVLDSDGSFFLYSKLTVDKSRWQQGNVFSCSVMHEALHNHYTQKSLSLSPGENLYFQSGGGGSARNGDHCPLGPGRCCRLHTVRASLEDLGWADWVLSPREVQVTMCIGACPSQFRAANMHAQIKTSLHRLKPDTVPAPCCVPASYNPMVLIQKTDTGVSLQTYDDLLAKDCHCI
Procedure: (§2) The ELISA assay was performed to measure the inhibitory activity of anti-GDF15 antibodies in concentration gradients to block GDF15 binding to GFRAL receptor. IC₅₀ values were used as a measure for neutralizing activity of candidate molecules. Briefly, 96-well plates were coated with 100 ng/well of GFRAL-his protein (SEQ ID NO: 74), and incubated for 1 h at 37° C. The plates were washed with PBST and then blocked for 1 hour at 37° C. with 1% BSA. Gradient-diluted antibodies (dose range 0˜10 μg/ml) was added into each well, immediately followed by equal volume of human GDF15-hFc protein ([…]). After incubation and washing, 100 μl of anti-human IgG secondary antibody (goat anti-human IgG-HRP, Sigma, A8667) was added to each well. Finally, TMB solution (100 μl/well) was added. 2M H₂SO₄ was used to stop the reaction. The OD450 was measured and the binding curve was generated by PRISM to calculate the IC₅₀ value.

human GDF15-his [3] = biological target: T1, human GDF15-his; test: cell-based or functional assay
mouse GDF15-hFc = biological target: T3, mouse GDF15-hFc (mouse); test: SPR, Biacore 8K; antibody on CM5 chip
T3 chain: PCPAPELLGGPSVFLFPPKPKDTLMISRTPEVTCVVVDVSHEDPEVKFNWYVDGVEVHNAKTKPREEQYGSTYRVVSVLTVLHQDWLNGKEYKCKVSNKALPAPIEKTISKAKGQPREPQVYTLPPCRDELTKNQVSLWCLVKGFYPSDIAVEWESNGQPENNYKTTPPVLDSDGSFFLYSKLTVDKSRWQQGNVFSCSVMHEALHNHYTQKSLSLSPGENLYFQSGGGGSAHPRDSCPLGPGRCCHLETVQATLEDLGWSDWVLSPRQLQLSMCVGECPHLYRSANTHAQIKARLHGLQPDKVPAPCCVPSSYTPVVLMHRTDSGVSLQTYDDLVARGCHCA
Procedure: (§3) The binding affinity of anti-GDF15 antibodies for human GDF15, rhesus monkey GDF15, mouse GDF15 were characterized using Biacore 8K (GE). The anti-GDF15 antibodies were stabilized on sensor chip CM5. The binding affinity of antibody for GDF15 proteins from different species at various concentrations was measured. Using the SPR technology, the association and dissociation rates were measured, and binding affinity was determined.

human GDF15-hFc [4] = biological target: T2, human GDF15-hFc; test: SPR, Biacore 8K; antibody on CM5 chip
Procedure: as §3

rhesus monkey GDF15-hFc = biological target: T4, rhesus monkey GDF15-hFc (rhesus monkey); test: SPR, Biacore 8K; antibody on CM5 chip
T4 chain: T2 chain with H237R, R252H, A285E, T294M, S295N, I343V
Procedure: as §3

human GDF15-hFc [5] = biological target: T2, human GDF15-hFc; test: competition ELISA as in Example 2; GFRAL-his coated, antibody titrated against human GDF15-hFc
Procedure: as §2

human GDF15-his [6] = biological target: T1, human GDF15-his; test: ELISA as in Example 2: plate coated with the antibody, graded human GDF15-his, anti-his-HRP, OD450; the sheet's x axis reads 'Log GDF15 Antibody (nM)'
Procedure: as §1

human GDF15-his [7] = biological target: T1, human GDF15-his; test: as above
Procedure: as §1

human GDF15-his [8] = biological target: T1, human GDF15-his; test: cell-based or functional assay
human GDF15-his [9] = biological target: T1, human GDF15-his; test: ELISA as in Example 2: plate coated with the antibody, graded human GDF15-his, anti-his-HRP, OD450; the sheet's x axis reads 'Log GDF15 antibody (nM)'
Procedure: as §1

B1: GDF-R31-rabIg1 (antibody, V domains shown)
VH: QQLKESGGRLVTPGTPLTLTCTVSGFSLSDYYMSWVRQAPGKGLEWIGDIYGGSGTTDYASWVKGRFTISKTSTTVDLRIASPTTEDTATYFCGRGITADIWGPGTLVTVSL
VL: DIVLTQTPASVEAAVGGTVTIKCQASQSISSYLAWYQQKPGQPPKLLIYKASTLASGVPSRFKGSGSGTEFTLTISDLECADAATYYCRCIYGDSYGAAFGGGTEVVVQ
notes: Full-length rabbit antibody: rabbit IgG1 heavy constant (pTTa1-rab Ig1-H) and rabbit light constant (pTTa1-rab-CLB4); also called GDF15-R31-rabIg1
- EC50 (human GDF15-his [1]): 66.5 nM
- IC50 (human GDF15-hFc [2]): 2.28 nM

B2: hum_R37-5 (antibody, V domains shown)
VH: EVQLVESGGGLVKPGGSLRLSCAASGFSLSNYYMSWVRQAPGKGLEWVGMISFSGTTYATWAKGRFTISRDDSKNTVYLQINSLKTEDTAVYFCARVVYAGWTYPLGIWGQGTLVTVSS
VL: DIQLTQSPSSLSASVGDRVTITCQASQSISSVLSWYQQKPGKPPKALIYEASILASGVPSRFSGSGSGTDFTLTISSLQPEDFATYYCQANYDVYNYGNPFGGGTKVEIK
notes: Tested in human IgG1 format
- IC50 (read off the curve), SRE-luciferase signal in 293T-GFRAL/RET-Luc cells with human GDF15-his (human GDF15-his [3]): ~0.1 nM
- Kd (mouse GDF15-hFc): 106 nM
- koff (mouse GDF15-hFc): 0.000869 s⁻¹
- kon (mouse GDF15-hFc): 8210 M⁻¹ s⁻¹
- Kd (human GDF15-hFc [4]): 0.584 nM
- koff (human GDF15-hFc [4]): 6.95e-05 s⁻¹
- kon (human GDF15-hFc [4]): 119000 M⁻¹ s⁻¹
- Kd (rhesus monkey GDF15-hFc): 1.23 nM
- koff (rhesus monkey GDF15-hFc): 0.00421 s⁻¹
- kon (rhesus monkey GDF15-hFc): 3.43e+06 M⁻¹ s⁻¹
- IC50 (human GDF15-hFc [5]): 1.9 nM
- EC50 (read off the curve) (human GDF15-his [6]): ~60 nM

B3: hum_R37-8 (antibody, V domains shown)
VH: EVQLVESGGGLVKPGGSLRLSCAASGFSLSNYYMSWVRQAPGKGLEWIGMISFSGTTYATWAKGRFTISKDSSTVYLQINSLKTEDTAVYFCARVVYAGWTYPLGIWGQGTLVTVSS
VL: B2 VL with L4M
notes: Tested in human IgG1 format
- EC50 (read off the curve) (human GDF15-his [7]): ~80 nM
- IC50 (read off the curve), SRE-luciferase signal in 293T-GFRAL/RET-Luc cells with human GDF15-his (human GDF15-his [3]): ~0.1 nM
- Kd (mouse GDF15-hFc): 101 nM
- koff (mouse GDF15-hFc): 0.0017 s⁻¹
- kon (mouse GDF15-hFc): 16800 M⁻¹ s⁻¹
- Kd (human GDF15-hFc [4]): 0.607 nM
- koff (human GDF15-hFc [4]): 8.46e-05 s⁻¹
- kon (human GDF15-hFc [4]): 139000 M⁻¹ s⁻¹
- Kd (rhesus monkey GDF15-hFc): 1.09 nM
- koff (rhesus monkey GDF15-hFc): 0.002 s⁻¹
- kon (rhesus monkey GDF15-hFc): 1.84e+06 M⁻¹ s⁻¹
- IC50 (human GDF15-hFc [5]): 1.59 nM

B4: hum_R37-2 (antibody, V domains shown)
VH: B3 VH
VL: B2 VL
notes: Tested in human IgG1 format
- IC50 (read off the curve), SRE-luciferase signal in 293T-GFRAL/RET-Luc cells with human GDF15-his (human GDF15-his [3]): ~0.1 nM
- Kd (mouse GDF15-hFc): 118 nM
- koff (mouse GDF15-hFc): 0.00175 s⁻¹
- kon (mouse GDF15-hFc): 14800 M⁻¹ s⁻¹
- Kd (human GDF15-hFc [4]): 1.07 nM
- koff (human GDF15-hFc [4]): 0.000137 s⁻¹
- kon (human GDF15-hFc [4]): 129000 M⁻¹ s⁻¹
- Kd (rhesus monkey GDF15-hFc): 1.28 nM
- koff (rhesus monkey GDF15-hFc): 0.00263 s⁻¹
- kon (rhesus monkey GDF15-hFc): 2.06e+06 M⁻¹ s⁻¹
- IC50 (human GDF15-hFc [5]): 1.72 nM
- EC50 (read off the curve) (human GDF15-his [6]): ~60 nM

B5: hum_R37-11 (antibody, V domains shown)
VH: B2 VH
VL: B2 VL with L4M
notes: Tested in human IgG1 format
- EC50 (read off the curve) (human GDF15-his [7]): ~80 nM
- IC50 (human GDF15-hFc [5]): 1.9 nM
- IC50 (read off the curve), SRE-luciferase signal in 293T-GFRAL/RET-Luc cells with human GDF15-his (human GDF15-his [8]): ~0.1 nM

B6: hum_R37-13 (antibody, V domains shown)
VH: B2 VH with V48I, R70K, D72S
VL: B2 VL with L4M, A46L
notes: Tested in human IgG1 format
- IC50 (human GDF15-hFc [5]): 2.06 nM
- IC50 (read off the curve), SRE-luciferase signal in 293T-GFRAL/RET-Luc cells with human GDF15-his (human GDF15-his [8]): ~0.1 nM
- EC50 (read off the curve) (human GDF15-his [9]): ~200 nM

B7: hum_R37-9 (antibody, V domains shown)
VH: B2 VH with V48I, R70K
VL: B2 VL with L4M
notes: Tested in human IgG1 format
- EC50 (read off the curve) (human GDF15-his [7]): ~80 nM
- IC50 (human GDF15-hFc [5]): 1.82 nM
- IC50 (read off the curve), SRE-luciferase signal in 293T-GFRAL/RET-Luc cells with human GDF15-his (human GDF15-his [8]): ~0.2 nM

B8: hum_R37-7 (antibody, V domains shown)
VH: B2 VH with V48I, R70K, D72S
VL: B2 VL with L4M
notes: Tested in human IgG1 format
- EC50 (read off the curve) (human GDF15-his [7]): ~80 nM
- IC50 (read off the curve), SRE-luciferase signal in 293T-GFRAL/RET-Luc cells with human GDF15-his (human GDF15-his [3]): ~0.1 nM
- IC50 (human GDF15-hFc [5]): 2.31 nM

B9: hum_R37-18 (antibody, V domains shown)
VH: B2 VH with V77L, I81M
VL: B2 VL with L4M, A46L
notes: Tested in human IgG1 format
- IC50 (human GDF15-hFc [5]): 0.88 nM
- IC50 (read off the curve), SRE-luciferase signal in 293T-GFRAL/RET-Luc cells with human GDF15-his (human GDF15-his [8]): ~0.2 nM
- EC50 (read off the curve) (human GDF15-his [9]): ~200 nM

B10: hum_R37-14 (antibody, V domains shown)
VH: B3 VH
VL: B2 VL with L4M, A46L
notes: Tested in human IgG1 format
- IC50 (human GDF15-hFc [5]): 1.51 nM
- IC50 (read off the curve), SRE-luciferase signal in 293T-GFRAL/RET-Luc cells with human GDF15-his (human GDF15-his [8]): ~0.2 nM
- EC50 (read off the curve) (human GDF15-his [9]): ~200 nM

B11: hum_R37-15 (antibody, V domains shown)
VH: B2 VH with V48I, R70K
VL: B2 VL with L4M, A46L
notes: Tested in human IgG1 format
- IC50 (human GDF15-hFc [5]): 1.59 nM
- IC50 (read off the curve), SRE-luciferase signal in 293T-GFRAL/RET-Luc cells with human GDF15-his (human GDF15-his [8]): ~0.2 nM
- EC50 (read off the curve) (human GDF15-his [9]): ~200 nM
